The source of these data is US20110117625, “Engineered Nucleases and Their Uses for Nucleic Acid Assembly” (published 2011).

The term Kd denotes a measure of binding affinity in units of concentration. A lower Kd goes with higher affinity.

Series [1] concerns the target T1, Sce7 (I-SceI D44N/D145A, non-cleaving) (UniProt P03882 P03882:1-235, D44N,D145A).
T1 sequence: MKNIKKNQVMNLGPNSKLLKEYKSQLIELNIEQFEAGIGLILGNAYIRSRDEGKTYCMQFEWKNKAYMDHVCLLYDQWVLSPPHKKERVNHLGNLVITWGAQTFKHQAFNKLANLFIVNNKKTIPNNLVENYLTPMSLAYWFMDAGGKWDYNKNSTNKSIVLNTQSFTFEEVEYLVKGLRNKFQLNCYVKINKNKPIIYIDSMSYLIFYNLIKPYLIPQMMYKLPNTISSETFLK
Briefly: EMSA; 20 mM Tris pH 9.0, 25 mM NaCl, 10 mM CaCl2, 37 C. The following applies: tags: 6xHis N-terminal with TEV site. Here is the method: The binding affinities for the I-SceI recognition sites were determined using a gel-shift assay and are depicted in Table 3.
To measure the dissociation constants, the binding protein of interest, at a range of concentrations between 2 and 400 nM, was incubated with 10 nM DNA substrate in 20 ìL of 20 mM Tris.HCl, pH 9.0, 25 mM NaCl, 10 mM CaCl2, 1 mM DTT, 2% glycerol, and 0.1 mg/mL BSA, for 20 minutes at 37° C. (Sce7 and CdnDI) or 42° C. (CdnDII). Two ìL of 10′ loading buffer were added to each sample, and 10 ìL of each mixture were loaded onto 6% polyacrylamide DNA retardation gels (Invitrogen), and run for 30 minutes at 175 V. The gels were stained with SYBR Gold (Invitrogen) and visualized with ultraviolet light. DNA-containing bands were quantified by densitometry as described above. Concentrations of bound and free protein were calculated from the input amount of DNA and from ratios of band intensities, and the data were fit using Origin software (Originlab, Northampton, Mass.) to the following equation: […]
For orientation: A gel shift assay detects complexes by their altered migration in electrophoresis.

A further series concerns the target T2, I-SceI (wild type) (UniProt P03882 P03882:1-235).
T2 sequence: T1 sequence with N44D, A145D
In words: EMSA; 20 mM Tris pH 9.0, 25 mM NaCl, 10 mM CaCl2, 37 C?
The following applies: tags: 6xHis N-terminal with TEV site (as for variants).

In a further series the target is T3, I-CreI D20N/Q47A (UniProt P05725 P05725:1-163, D20N,Q47A).
T3 sequence: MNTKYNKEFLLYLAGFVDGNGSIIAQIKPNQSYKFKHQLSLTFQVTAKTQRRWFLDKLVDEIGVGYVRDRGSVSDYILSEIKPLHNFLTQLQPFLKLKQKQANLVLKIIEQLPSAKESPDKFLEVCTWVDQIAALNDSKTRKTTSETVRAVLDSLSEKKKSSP
Briefly: EMSA; 5 nM DNA, 20 mM Tris pH 9.0, 37 C; printed D2ON. The following applies: tags: 6xHis N-terminal with TEV site; chain copies: 2; EcoRI/BamHI overhangs. Here is the method: (§1) Various concentrations of I-SceI or I-CreI (generally between 2.5 and 50 nM) were mixed with 5 nM DNA in 20 mM tris.HCl, 100 ug/mL bovine serum albumin, pH 8.0 (for I-SceI variants) or pH 9.0 (for I-CreI variants) in a total volume of 10 ìL. After incubation for 20 minutes at 37° C., 1 ìL of 10× DNA retardation gel loading buffer (Invitrogen) was added and the samples were loaded onto a 1 mm thick DNA retardation gel (Invitrogen). Electrophoresis was performed for 45 minutes at 175 Volts in 0.5× TBE buffer (Invitrogen). Gels were stained for 45 minutes with SYBR Gold stain (Invitrogen) and visualized by UV illumination. Densitometry was performed on a digital image of the gel to determine the relative intensities of the bands corresponding to bound and unbound DNA. Intensities of bound and unbound DNA were used to determine the concentrations of bound and free enzyme at each initial concentration. […] Binding affinities (dissociation constants, Kd) were determined by plotting the concentration of bound enzyme on the y-axis and the concentration of free enzyme on the x-axis for each data point and fitting the data to a rectangular hyperbola using standard nonlinear least-squares fitting procedures, using the equation y=([DNA]*x)/(Kd+x).

In a further series the target is T4, I-SceI D44A/D145N (UniProt P03882 P03882:1-235, D44A,D145N).
T4 sequence: T1 sequence with N44A, A145N
In words: EMSA; 5 nM DNA, 20 mM Tris pH 8.0, 37 C. The following applies: tags: 6xHis N-terminal with TEV site; EcoRI/BamHI overhangs. On the procedure:
as §1

Substitutions are numbered along the chain they refer to.

B1: 80-bp I-SceI site duplex (dsDNA)
DNA 1: GAATTCTGGTTCCGAAGCCTGTCCTGCACGCTAGGGATAACAGGGTAATAATATATGAATCCAAACTAGAGCGGGGCTCT
DNA 2: AGAGCCCCGCTCTAGTTTGGATTCATATATTATTACCCTGTTATCCCTAGCGTGCAGGACAGGCTTCGGAACCAGAATTC
With B1, the values for the Kd (in series [1]; with I-SceI (wild type)) were 13 nM and 62 nM, respectively.

B2: pSCI insert with I-SceI and I-CreI sites (142 bp) (dsDNA)
DNA 1: AATTCTGGTTCCGAAGCCTGTCCTGCACGCTAGGGATAACAGGGTAATAATATATGAATCCAAACTAGAGCGGGGCTCTTGACGTTTGGCTCAAAACGTCGTGAGACAGTTTGGTCAGTTGTAAATATCTAATATTCCAATG
DNA 2: GATCCATTGGAATATTAGATATTTACAACTGACCAAACTGTCTCACGACGTTTTGAGCCAAACGTCAAGAGCCCCGCTCTAGTTTGGATTCATATATTATTACCCTGTTATCCCTAGCGTGCAGGACAGGCTTCGGAACCAG
With B2, the binding result in the series with I-CreI D20N/Q47A and with I-SceI D44A/D145N was “binds” throughout.
